T1: human IL-23R on Kit-225 cells (human, UniProt Q5VWK5 24-629)
T1 sequence: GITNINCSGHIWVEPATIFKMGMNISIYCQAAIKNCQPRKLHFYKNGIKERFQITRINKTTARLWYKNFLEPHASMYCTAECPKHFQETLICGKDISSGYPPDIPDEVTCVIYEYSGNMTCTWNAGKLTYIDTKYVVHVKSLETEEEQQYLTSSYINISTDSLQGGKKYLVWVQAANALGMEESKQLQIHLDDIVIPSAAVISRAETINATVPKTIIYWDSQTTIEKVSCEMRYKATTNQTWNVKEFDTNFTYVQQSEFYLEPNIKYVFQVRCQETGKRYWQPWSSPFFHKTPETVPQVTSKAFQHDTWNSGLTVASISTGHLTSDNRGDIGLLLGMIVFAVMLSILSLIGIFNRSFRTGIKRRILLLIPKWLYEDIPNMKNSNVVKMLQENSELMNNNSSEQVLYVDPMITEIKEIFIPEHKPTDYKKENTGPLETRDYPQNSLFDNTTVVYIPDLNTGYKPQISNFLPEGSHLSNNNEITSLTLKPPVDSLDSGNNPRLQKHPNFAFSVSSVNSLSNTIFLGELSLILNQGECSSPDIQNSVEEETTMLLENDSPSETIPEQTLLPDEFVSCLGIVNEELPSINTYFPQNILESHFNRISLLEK

T2: human IL-23R-mouse Fc fusion protein (human; mouse, UniProt Q5VWK5 24-353)
T2 construct: Expressed in FreeStyle 293 cells; also called human IL-23R-Fc fusion protein; not shown: Fc region of mouse immunoglobulin IgG2a as encoded by vector pFUSE-mIgG2A-Fc2 (InvivoGen); limits and any linker not sta
T2 sequence: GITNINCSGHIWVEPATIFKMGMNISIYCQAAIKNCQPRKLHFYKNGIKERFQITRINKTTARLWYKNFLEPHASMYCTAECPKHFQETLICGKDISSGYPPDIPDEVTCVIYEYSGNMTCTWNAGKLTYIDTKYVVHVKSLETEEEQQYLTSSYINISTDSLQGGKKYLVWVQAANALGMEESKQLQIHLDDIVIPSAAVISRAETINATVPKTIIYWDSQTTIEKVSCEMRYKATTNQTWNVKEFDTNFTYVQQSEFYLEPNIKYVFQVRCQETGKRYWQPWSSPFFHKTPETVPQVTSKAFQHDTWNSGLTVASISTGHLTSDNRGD


Assays:
[1] = biological target: T3, monkey IL-23R-mouse Fc fusion protein (monkey; mouse); assay: antigen ELISA, monkey IL-23R-mouse Fc immobilized, HRP anti-human IgG, chemiluminescence
T3 construct: extracellular domain; also called monkey IL-23R-Fc fusion protein
Description: (§1) The present inventors used an antigen ELISA to measure the antigen-specific binding activities of the fully human antibodies constructed in the above-described Example. A human or monkey IL-23R-Fc fusion protein was immobilized onto a Maxisorp 384-well plate (Nunc, Inc.) at a concentration of 500 ng/mL. A blocking agent (Blocking One; Nacalai Tesque, Inc.) was added thereto and allowed to stand at room temperature for 1 hour, followed by washing twice with a wash buffer [TPBS: 0.05% Tween-20-containing phosphate buffered saline (PBS)], and each of the purified antibody samples was suitably serially diluted and added thereto. Incubation was performed at room temperature for 1 hour, followed by washing four times with TPBS, and HRP-labeled anti-human IgG antibody (DAKO) which was 2000-fold diluted with dilution buffer (Blocking One which was two-fold diluted with PBS) was added as secondary antibody. Incubation was performed at room temperature for 1 hour, followed by washing four times with a washing buffer. […] of BM-chemiluminescence ELISA substrate (POD) (Roche Diagnostics) that is a reagent for detecting chemiluminescence was added thereto and the amount of chemiluminescence was measured with an EnVision counter (Perkin Elmer). Each of the antibodies was tested in duplicate, and the EC 50 was analyzed by curve fitting.

[2] = biological target: T1, human IL-23R on Kit-225 cells; assay: cell-based or functional assay
[3] = biological target: T2, human IL-23R-mouse Fc fusion protein; assay: antigen ELISA, human IL-23R-mouse Fc immobilized, HRP anti-human IgG, chemiluminescence
Description: as §1

[4] = biological target: T2, human IL-23R-mouse Fc fusion protein; assay: antigen ELISA, human IL-23R-mouse Fc immobilized, HRP anti-mouse Ig, chemiluminescence
Description: (§2) The present inventors used an antigen ELISA to measure the antigen-specific binding activity of the antibody. The human or monkey IL-23R-Fc fusion protein was immobilized onto a Maxisorp 384-well plate (Nunc, Inc.) at a concentration of 500 ng/mL. A blocking agent (Blocking One; Nacalai Tesque, Inc.) was added thereto and allowed to stand at room temperature for 1 hour, followed by washing twice with a wash buffer [TPBS: a phosphate buffered saline (PBS) containing 0.05% Tween-20], and the purified antibody samples were suitably serially diluted and added thereto. Incubation was performed at room temperature for 1 hour, followed by washing four times with TPBS, and HRP-rabbit anti-mouse Ig antibody (DAKO) which was 2000-fold diluted with a dilution buffer (Blocking One which was two-fold diluted with PBS) was added. Incubation was performed at room temperature for 1 hour, followed by washing four times with a wash buffer. 40 μL of BM-chemiluminescence ELISA substrate (POD) (Roche Diagnostics), which is a reagent for detecting chemical luminescence, was added, and the amount of chemiluminescence was measured with an EnVision counter (Perkin Elmer). Each antibody was tested in duplicate and the EC50 was analyzed by curve fitting. […]

[5] = biological target: T3, monkey IL-23R-mouse Fc fusion protein; assay: antigen ELISA, monkey IL-23R-mouse Fc immobilized, HRP anti-mouse Ig, chemiluminescence
Description: as §2

| EC50 [1] [µg/mL] | Human IL-23-inducible Kit-225 cell proliferation inhibitory activity, IC50 [2] [µg/mL] | EC50 [3] [µg/mL] | EC50 [4] [µg/mL] | EC50 [5] [µg/mL] | Binder |
| --- | --- | --- | --- | --- | --- |
| 0.0121 | 0.00348 | 0.0223 | – | – | fully human 25-3-4 (antibody, human IgG1, kappa, V domains shown, human Ig gamma1 / kappa) VH: QVQLQESGPGLVKPSQTLSLTCSVSGGSISSGDHYWTWIRQHPGKGLEWIGYIYSSGHTYYSPSLKSRVTISVDTSKNQFSLRLSSVTAADTAVYYCARVGDYEWFDTWGQGTLVTVSS VL: DIVMTQSPDSLAVSLGERATINCKSSQTILYPSNNMNYLGWYQQKPGQSPRLLIYWASTRESGVPDRFSGSGSGTDFTLTISSLQAEDVAVYYCQQYYSSLPTFGQGTKVEIKR |
| 0.0122 | 0.00266 | 0.0164 | – | – | fully human 25-3-2 (antibody, human IgG1, kappa, V domains shown, human Ig gamma1 / kappa) VH: QVQLQESGPGLVKPSQTLSLTCSVSGGSIDSGDHYWTWIRQHPGKGLEWIGYIYSSGHTYYSPSLKSRVTISVDTSKNQFSLRLSSVTAADTAVYYCARVGDYEWFDTWGQGTLVTVSS VL: DIVMTQSPDSLAVSLGERATINCKSSQTILYPSNNMNYLGWYQQKPGQSPRLLIYWASTRESGVPDRFSGSGSGTDFTLTISSLQAEDVAVYYCQQYYSSLPTFGQGTKVEIKR |
| 0.0121 | 0.00568 | 0.0221 | – | – | fully human 25-3-3 (antibody, human IgG1, kappa, V domains shown, human Ig gamma1 / kappa) VH: QVQLQESGPGLVKPSQTLSLTCSVSGGSISSGDHYWTWIRQHPGKGLEWIGYIYSSGHTYYSPSLKSRVTISVDTSKNQFSLRLSSVTAADTAVYYCARVGDYEWFDTWGQGTLVTVSS VL: DIVMTQSPDSLAVSLGERATINCKSSQTILYPSNNMNYLGWYQQRAGQSPRLLIYWASTRESGVPDRFSGSGSGTDFTLTISSLQAEDVAVYYCQQYYSSLPTFGQGTKVEIKR |

Continued, binder first:

| Binder | EC50 [1] [µg/mL] | Human IL-23-inducible Kit-225 cell proliferation inhibitory activity, IC50 [2] [µg/mL] | EC50 [3] [µg/mL] | EC50 [4] [µg/mL] | EC50 [5] [µg/mL] |
| --- | --- | --- | --- | --- | --- |
| fully human 25-3-1 (antibody, human IgG1, kappa, V domains shown, human Ig gamma1 / kappa) VH: QVQLQESGPGLVKPSQTLSLTCSVSGGSIDSGDHYWTWIRQHPGKGLEWIGYIYSSGHTYYSPSLKSRVTISVDTSKNQFSLRLSSVTAADTAVYYCARVGDYEWFDTWGQGTLVTVSS VL: DIVMTQSPDSLAVSLGERATINCKSSQTILYPSNNMNYLGWYQQRAGQSPRLLIYWASTRESGVPDRFSGSGSGTDFTLTISSLQAEDVAVYYCQQYYSSLPTFGQGTKVEIKR | 0.0124 | 0.00309 | 0.0176 | – | – |
| 25-3 (chimeric) (antibody, V domains shown, also called antibody (chimeric antibody) named 25-3) VH: QVQLQESGPGQVKPSQTLSLTCSVSGGSIDSGDHYWTWIRQHPGEVLEWIGYIYSSGHTYYSPSLKSRLTMSLDTSKNQFSLRLSSVTAADTAVYYCARVGDYEWFDTWGQGTLVTVSS VL: DIVMTQSPDSLAVSLGERATINCKSSQTILYPSNNMNYLGWYQQRAGQSPRLLIYWASTRESGVPDRFSGSGSGTDFTLTISSLQAEDVAVYYCQQYYSSLPTFGQGTKVEIKR | – | – | – | 0.021 | 0.028 |
| fully human 25-3 (antibody, human IgG1, kappa, V domains shown, Human Ig gamma1 / human kappa constant regions; expressed in CHO-K1SV cells; also called fully human antibody of 25-3) VH: QVQLQESGPGQVKPSQTLSLTCSVSGGSIDSGDHYWTWIRQHPGEVLEWIGYIYSSGHTYYSPSLKSRLTMSLDTSKNQFSLRLSSVTAADTAVYYCARVGDYEWFDTWGQGTLVTVSS VL: DIVMTQSPDSLAVSLGERATINCKSSQTILYPSNNMNYLGWYQQRAGQSPRLLIYWASTRESGVPDRFSGSGSGTDFTLTISSLQAEDVAVYYCQQYYSSLPTFGQGTKVEIKR | 0.0123 | 0.00225 | 0.019 | – | – |

— US20150126713A1 (Astellas, published 2015)
